Measured values reported in article PMC3258384 (Journal of Molecular Biology, 2011).

Target: Human calmodulin (human, UniProt P0DP23 1-149)
Experiment: circular dichroism

B1: pCaN peptide, the CaM binding region in the RD of αCaN (peptide)
peptide: ARKEVIRNKIRAIGKMARVFSVLR
  binding result: binds
